First the molecules themselves.
B1: Bri2 BRICHOS domain (residues 113-231 of full-length human Bri2), wild type (domain or fragment, UniProt Q9Y287 113-231, looked up)
chain: QTIEENIKIFEEEEVEFISVPVPEFADSDPANIVHDFNKKLTAYLDLNLDKCYVIPLNTSIVMPPRNLLELLINIKAGTYLPQSYLIHEHMVITDRIENIDHLGFFIYRLCHDKETYKL
notes: Bri2 (integral membrane protein 2B), human, BRICHOS domain, residues 113-231 of full-length human Bri2; In the monomer Cys164 and Cys223 form an intramolecular disulfide; dimers and oligomers have intermolecular disulfides; also called Bri2 BRICHOS monomers; Bri2 BRICHOS dimers; source: E. coli, expressed and purified as previously described (monomer, dimer and oligomer species isolated)
B2: NT*-Bri2 BRICHOScys mutant C223S (NT*-Bri2 BRICHOScys 164-164 dimer) (domain or fragment, human, UniProt Q9Y287 113-231, looked up)
chain: B1 chain with C111S
modifications: intermolecular Cys164-Cys164 homodisulfide
notes: Bri2 (integral membrane protein 2B), human, BRICHOS domain, residues 113-231 of full-length human Bri2, C223S; NT* fusion kept as a means to tell the species apart by size; also called Cys164 dimers; source: E. coli, dimer fraction purified with NT* solubility tag
B3: NT*-Bri2 BRICHOScys mutant C164S (NT*-Bri2 BRICHOScys 223-223 dimer) (domain or fragment, human, UniProt Q9Y287 113-231, looked up)
chain: B1 chain with C52S
modifications: intermolecular Cys223-Cys223 homodisulfide
notes: Bri2 (integral membrane protein 2B), human, BRICHOS domain, residues 113-231 of full-length human Bri2, C164S; NT* fusion kept as a means to tell the species apart by size; also called Cys223 dimers; source: E. coli, dimer fraction purified with NT* solubility tag
B4: Bri2 BRICHOScys mutant C164S without NT* tag (Cys223-Cys223 dimer) (domain or fragment, human, UniProt Q9Y287 113-231, looked up)
chain: B1 chain with C52S
modifications: intermolecular Cys223-Cys223 homodisulfide
notes: Bri2 (integral membrane protein 2B), human, BRICHOS domain, residues 113-231 of full-length human Bri2, C164S; also called Cys223 dimers; source: E. coli, dimer fraction purified without NT* solubility tag
B5: Bri2 BRICHOS Thr to Trp (T206W) mutant (domain or fragment, human, UniProt Q9Y287 113-231, looked up)
chain: B1 chain with T94W
notes: Bri2 (integral membrane protein 2B), human, BRICHOS domain, residues 113-231 of full-length human Bri2, T206W; also called Thr to Trp Bri2 BRICHOS mutant; source: E. coli, expressed and purified as previously described

Series [1] deals with the molecule itself. Put plainly: SEC; Bri2 BRICHOS monomers, non-incubated or incubated at 37°C without reductant; 20 mM phosphate buffer, 0.2 mM EDTA, pH 8; monomer to dimers and tetramers. (Size exclusion chromatography separates by hydrodynamic size, large species first.)
Series [2] concerns the molecule itself. Put plainly: non-reducing SDS-PAGE and Western blot; dimer fractions of the NT*-Bri2 BRICHOScys mutants under non-reducing conditions. (Immunoblotting shows a protein as a band on a membrane.)
Series [3] concerns the target B3. Put plainly: non-reducing SDS-PAGE and Western blot; dimer fractions of Bri2 BRICHOScys mutants with or without NT* mixed 1:1 at 10 μM final protein, 20 mM phosphate buffer pH 8, 0.2 mM EDTA, 0.02% NaN3, 2.5x thrombin inhibitor, 37°C overnight; mixed disulfide band. The conditions noted are these: both partners purified.
Series [4] concerns the molecule itself. Put plainly: other fluorescence titration; apparent; tryptophan fluorescence emission change upon dimer formation of the T206W mutant, excitation 280 nm, emission 300-400 nm, 96 well plate; single exponential fit; monomer to dimer/assembly.

Substitutions are numbered along the chain they refer to. Names and notes keep the numbering of the source. Values joined by “and” are separate entries in the source; they are usually repeats but may differ in a detail not shown here. Equal entries are not always repeated.

By stoichiometry N is commonly meant a count of units in the complex or per binding partner.

As to B1, the “stoichiometry N” value in series [1] is 2 and 4.

Consider B2, for which, in series [2], the binding result is on record as “binds”. Same read-out and setting: the same measure for B3: “binds”.

For the molecule B4, the binding result in series [3] is “binds”. As to B5, the Kd in series [4] turned out to be 1000 ± 200 nM.

Values taken from article PMC9278091, “ATP‐independent molecular chaperone activity generated under reducing conditions” (Protein Science : A Publication of the Protein Society, 2022).
